The source of these data is patent publication US20260132208A1 (DOMAIN THERAPEUTICS, published 2026).

A word on the IC50: it is the concentration that inhibits the measured activity by half. High values mean a need for much substance, low ones inhibition by little substance.

“And” between values parts separate entries of the source, which are not always exact repeats. Equal entries are not always repeated. Where two headings read alike, the source gives them in different places.

Assay [1] addresses T1, human CCR8 (human, UniProt P51685 1-355). In words: cell-based or functional assay.
Assay [2] addresses T2, human CCR8 with a SNAP-tag at the N-terminus (human, UniProt P51685 1-355, SNAP-tag labelled covalently with Lumi4-Terbium).
T2 construct: also called hCCR8 SNAP-tag; CCR8 SNAP-tag
The assay can be described thus: HTRF Tag-lite, inhibition of hCCL1-AF647 binding to SNAP-hCCR8 on HEK-293 cells. The method, then: (§1) The inhibition of CCL1 binding to hCCR8 was evaluated with the Tag-Lite® technology from Cisbio (Revvity). Human CCR8 is engineered with a SNAP-tag at the N-terminus of the GPCR. hCCR8 SNAP-tag is transiently transfected on HEK-293 cell line using FuGene® (Promega, Madison, WI, USA). 48 hours after transfection, cells are labeled with the substrate Lumi4-Terbium® (Cisbio, Codolet, France) which covalently reacts with the SNAP-tag, for 1 h at 37° C. Thawed or freshly labeled cells are plated in a 384 low volume white plate (GREINER Bio-One, Courtaboeuf, France) (10000 cells/well/10 μl). […] The Kd was previously obtained in a saturation binding assay on the same cells. […] The plate is next incubated at 21° C. for 2 h. Detection of HTRF signal is performed on the multiplate reader EnVision (PerkinElmer, Waltham, MA, USA). The HTRF (665/620) ratio is calculated by EnVision software, the data exported are considered as the total binding. The specific binding is calculated then by subtracting the non-specific signal from the total binding. The Ki and IC₅₀ are calculated using the “One site-Fit Ki” and “One site-FitlogIC50” from GraphPad Prism 9 (Graphpad Software, San Diego, CA, USA), respectively.
(Time-resolved FRET reads energy transfer from a long-lived donor to a nearby acceptor.)

For assay [3], the target named is T2, human CCR8 with a SNAP-tag at the …. The assay is described as above. The protocol:
as §1
The source holds these as a separate data set.

Assay [4] has as its target T3, pm1 (sulfated tyrosine(s) among Y15, Y16, Y17; which ones is not told (the underlining of Table 1 is lost in the text)).
T3 construct: also called sulfated CCR8 N-terminal peptide pm1
In words: ELISA on coated peptide [cont.]. The gist of the method:
(§2)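 Coat: peptide 500 ng/ml, carbonate/bicarbonate buffer. mAb 1 μg/mL, then 1/10 dilution; 90 min RT; wash. TMB 15 min; OD read = reactivity.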
For orientation: In an ELISA, binding on a coated surface is turned into a signal by an enzyme label.

Assay [5] deals with T4, pm8 (Y15, Y16 and Y17 sulfated).
T4 construct: also called sulfated CCR8 N-terminal peptide pm8
In words: ELISA on coated peptide [cont.]. An outline of the steps: as §2

The target of assay [6] is T5, pm5 (Y15 and Y17 sulfated; Y16 not sulfated).
T5 construct: also called sulfated CCR8 N-terminal peptide pm5
In words: ELISA on coated peptide [cont.]. An outline of the steps:
as §2

Assay [7] addresses T6, pm4 (sulfated tyrosine(s) among Y15, Y16, Y17; which ones is not told (the underlining of Table 1 is lost in the text)).
T6 construct: also called sulfated CCR8 N-terminal peptide pm4
In words: ELISA on coated peptide [cont.]. The gist of the method:
as §2

For assay [8], the target named is T7, pm2 (sulfated tyrosine(s) among Y15, Y16, Y17; which ones is not told (the underlining of Table 1 is lost in the text)).
T7 construct: also called sulfated CCR8 N-terminal peptide pm2
In words: ELISA on coated peptide [cont.]. The gist of the method:
as §2

The target of assay [9] is T8, pm3 (Y17 sulfated; Y15 and Y16 not sulfated).
T8 construct: also called sulfated CCR8 N-terminal peptide pm3
The assay can be described thus: ELISA on coated peptide [cont.]. The gist of the method: as §2

Assay [10] deals with T9, pm6 (Y16 and Y17 sulfated; Y15 not sulfated).
T9 construct: also called sulfated CCR8 N-terminal peptide pm6
In words: ELISA on coated peptide [cont.]. The gist of the method:
as §2

The target in assay [11] is T1, human CCR8. In words: flow cytometry, HUT78 cells (endogenous CCR8). The protocol:
In human activated T cells model, prior to mAb incubation, cells were first incubated with 200 nM of hCCL1 (R&D Systems, Minneapolis, MN, USA) or buffer PBS (Invitrogen by Thermofisher Scientific, Illkirch-Graffenstaden, France) supplemented by 2% Fetal Bovine Serum (Invitrogen by Thermofisher Scientific, Illkirch-Graffenstaden, France) and 2 mM EDTA (Invitrogen by Thermofisher Scientific, Illkirch-Graffenstaden, France) during 1 hour at 4° C. To determine EC50 value, 8 concentrations of anti-CCR8 mAb were tested. Unbound antibodies were washed away with PBS (Invitrogen by Thermofisher Scientific, Illkirch-Graffenstaden, France) supplemented by 2% Fetal Bovine Serum (Invitrogen by Thermofisher Scientific, Illkirch-Graffenstaden, France) and 2 mM EDTA (Invitrogen by Thermofisher Scientific, Illkirch-Graffenstaden, France). Subsequently, cells are centrifuged (5 min at 400 g) and bound antibody is detected with F(ab′)2-Goat anti-Mouse IgG (H+L) Cross-Adsorbed Secondary Antibody, Alexa Fluor 488 (dilution 1/500) (Invitrogen by Thermofisher Scientific, Illkirch-Graffenstaden, France) or with F(ab′)₂-Goat anti-Human IgG Fc Secondary Antibody, PE (Invitrogen by Thermofisher Scientific, Illkirch-Graffenstaden, France) (dilution 1/1000) at 4° C. for 30 min. Detection reagent is washed away and cells are centrifuged (5 min at 400 g) and resuspended in 30 μL PBS. Bound detection antibody is quantified on a MacsQuant16 (Miltenyi, Gladbach, Germany) (B1 or B2 channel, 5000 events per acquisition). During the experiment, the respective isotype mAb controls (mouse IgG1, mouse IgG2a, mouse IgG2b, mouse IgG3 or human IgG1) (Biolegend, Amsterdam, The Netherlands) are included to exclude any unspecific binding events. EC50 values were determined via nonlinear fit “log (agonist) vs.response—Variable slope (four parameters)” function of Graphpad prism. EC50 values were not constantly determined in the same experiments.
Anti-CCR8 mAb cellular reactivity was also evaluated on native human CCR8 from HUT78 cell line by flow cytometry. In Table 4.3, Mean Fluorescence Intensity (Fold change to isotype control), the percentage of labelled cells and EC50 in nM of some anti-CCR8 antibodies are presented.
(A flow cytometer gives signals particle by particle.)

In assay [12] the target is T1, human CCR8. In words: cell-based or functional assay. This is another data set of the same source.
Assay [13] concerns the target T1, human CCR8. The assay can be described thus: cell-based or functional assay. This is another data set of the same source.
The target in assay [14] is T1, human CCR8. The assay can be described thus: cell-based or functional assay. This is another data set of the same source.
Assay [15] has as its target T1, human CCR8. In words: cell-based or functional assay. The source holds these as a separate data set.
Assay [16] has as its target T1, human CCR8. The assay can be described thus: cell-based or functional assay. This is another data set of the same source.
In assay [17] the target is T10, pwt1 (none (unmodified peptide)).
T10 construct: also called unmodified CCR8 N-terminal peptide
The assay can be described thus: ELISA on coated peptide [cont.]. The gist of the method: as §2

T4 sequence (peptide, as listed by the source): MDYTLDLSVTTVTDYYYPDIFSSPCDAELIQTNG
T9 sequence (peptide, as listed by the source): as above
T8 sequence (peptide, as listed by the source): as above
T5 sequence (peptide, as listed by the source): as above
T6 sequence (peptide, as listed by the source): as above
T3 sequence (peptide, as listed by the source): as above
T7 sequence (peptide, as listed by the source): as above
T10 sequence (peptide, as listed by the source): as above

B1: anti-CCR8 mAb 1-19 (antibody, human IgG1, kappa, V domains shown)
VH: EVQLVESGGGLVQPGRSLRLSCTASGFTFNTYAMNWVRQAPGKGLEWVARIRSKSNNYATYYAASVKGRFTISRDDSKSIAYLQMNSLKTEDTAVYYCVRGREAYYRYDGGYYAMDVWGQGTTVTVSS
VL: DIVMTQAAPSLPVTPGESASISCRSSKSLLHSNGNTYLYWFLQKPGQSPQLLIYRMSNLASGVPDRFSGSGSGTAFTLKISRVEAEDVGVYYCMQHLEYPFTFGSGTKLEIKR
notes: Humanized mAb, human IgG1 / kappa
As to B1, the “IC50 of CCL1-induced hCCR8 Gi2 signaling (BRET, HEK-293)” value in assay [1] was 0.048 µg/mL and 0.318 nM. For the same molecule, the IC50 in [2] was 0.02 µg/mL; in assay [3], 100 to 1000 pM. Also, the Ki in assay [2] is 0.01 µg/mL and 0.06 nM. In addition, the binding result in assay [4], in assay [5], in [6], in [7], in assay [8] and in assay [9] was “binds” in each case. In addition, the binding result in assay [10] is listed as “binds”.

B2: anti-CCR8 mAb 1-21 (antibody, human IgG1, kappa)
heavy: not shown
light: DIVMTQAAPSLSVTPGESASISCTSSKSLLHSNGNTYLYWFLQKPGQSPQLLIYRMSNLASGVPDRFSGSGSGTAFTLKISRVEAEDVGVYYCMQHREYPFTFGSGTKLEIKRTVAAPSVFIFPPSDEQLKSGTASVVCLLNNFYPREAKVQWKVDNALQSGNSQESVTEQDSKDSTYSLSSTLTLSKADYEKHKVYACEVTHQGLSSPVTKSFNRGEC
notes: Humanized mAb; Fc from human IgG1 allotype G1m17 with the terminal lysine deleted and the SDIE mutations (already in the entry)
On to B2, for which the “IC50 of CCL1-induced hCCR8 Gi2 signaling (BRET, HEK-293)” value in [1] is 0.035 µg/mL and 0.232 nM. In addition, the “% of labelled cells” value in assay [11] is 32%. Further, the “extrapolated top plateau of hCCL1 curve with 5 µg/mL mAb, protocol #3” value in assay [12] is 138000 % of hCCL1 (100 nM). Further, in [13], the “IC50 of CCL1-induced hCCR8 Gi2 signaling (BRET), pH 6.5” value is 0.025 µg/ml and 0.165 nM; the “IC50 of CCL1-induced hCCR8 Gi2 signaling (BRET), pH 7.4” value was 0.035 µg/ml and 0.232 nM. In assay [2], the IC50 is 0.09 µg/mL and 0.6 nM; the Ki was 0.05 µg/mL and 0.3 nM. The “ADCP % max phagocytosis, HUT78 targets, MDM donor 9” value in assay [14] came to 9.65%. Moreover, in assay [15], the “ADCC % max lysis, HUT78 targets, NK donor 1” value was found to be 30%; the “ADCC % max lysis, HUT78 targets, NK donor 2” value worked out at 28%; the “ADCC EC50, HUT78 targets, NK donor 1” value turned out to be 6.43 pM; the “ADCC EC50, HUT78 targets, NK donor 2” value came out at 0.42 pM. Also, in assay [16], the “residual hCCL1 (100 nM) Gi2 response, protocol #2, mAb 0.08 µg/mL” value came to 74%; the “residual hCCL1 (100 nM) Gi2 response, protocol #2, mAb 0.4 µg/mL” value was determined as 54%; the “residual hCCL1 (100 nM) Gi2 response, protocol #2, mAb 10 µg/mL” value was determined as 40%; the “residual hCCL1 (100 nM) Gi2 response, protocol #3, mAb 0.05 µg/mL” value came out at 89%. Further, in assay [16], the “residual hCCL1 (100 nM) Gi2 response, protocol #3, mAb 0.5 µg/mL” value was determined as 63% and the “residual hCCL1 (100 nM) Gi2 response, protocol #3, mAb 5 µg/mL” value was 51%. Moreover, the binding result in [4] is on record as “binds”. In assay [5], the binding result is “binds”. For the same molecule, in [6], the binding result is recorded as “binds”. For the same molecule, the binding result in [17] is “binds”. In addition, in assay [7], the binding result was “binds”. In assay [8], the binding result is reported as “binds”. The binding result in assay [9] was “binds”. For the same molecule, the binding result in assay [10] is listed as “binds”.
